Tested on: Aurelia ephyra
Experiment: Arm regeneration induction in amputated Aurelia ephyrae
Format: in vivo, Aurelia aurita
Details: amputated ephyrae, factor added to artificial seawater upon amputation
Experimental: Amputation. Strobilated ephyrae were fed daily with rotifers (Brachionus plicatilis) until amputation time. 2-3 days old ephyrae were anesthetized in 400 μM menthol and amputated using a razor blade mounted on an x-acto knife handle. After amputation, ephyrae were let to recover in bubbler cones (FIG. 7). Regeneration was assessed at various times until 1-2 weeks after amputation, before onset of maturation to medusa.
Inducing regeneration. Experimental setup. 0.5-1 L sand settling cones were repurposed as jellyfish aquaria (Nalgene Imhoff; FIG. 7). Each cone was equipped with an airline from a Tetra Whisper air pump 100 to create a gentle vertical current (˜1 bubble/sec, see FIG. 30). The conical geometry eliminates stagnant spots, where the ephyrae could get stuck. In this “bubbler cone” setup, the ephyrae were continually in water current either in the upward air bubble-generated current or the downward self-generated current. 500 mL artificial seawater and 30 ephyrae were placed in each cone to avoid crowding and fouling. Artificial seawater was changed every week. Nutrients. […]
Amputation. […] Regeneration was assessed at various times for 1-2 weeks after amputation, before onset of maturation to medusa. […]

B1: Egf: protein tested in the screen (hEGF recombinant, Sigma E9644) (protein, UniProt P01133 23-1207, looked up)
Pro-epidermal growth factor: PQHWSCPEGTLAGNGNSTCVGPAPFLIFSHGNSIFRIDTEGTNYEQLVVDAGVSVIMDFHYNEKRIYWVDLERQLLQRVFLNGSRQERVCNIEKNVSGMAINWINEEVIWSNQQEGIITVTDMKGNNSHILLSALKYPANVAVDPVERFIFWSSEVAGSLYRADLDGVGVKALLETSEKITAVSLDVLDKRLFWIQYNREGSNSLICSCDYDGGSVHISKHPTQHNLFAMSLFGDRIFYSTWKMKTIWIANKHTGKDMVRINLHSSFVPLGELKVVHPLAQPKAEDDTWEPEQKLCKLRKGNCSSTVCGQDLQSHLCMCAEGYALSRDRKYCEDVNECAFWNHGCTLGCKNTPGSYYCTCPVGFVLLPDGKRCHQLVSCPRNVSECSHDCVLTSEGPLCFCPEGSVLERDGKTCSGCSSPDNGGCSQLCVPLSPVSWECDCFPGYDLQLDEKSCAASGPQPFLLFANSQDIRHMHFDGTDYGTLLSQQMGMVYALDHDPVENKIYFAHTALKWIERANMDGSQRERLIEEGVDVPEGLAVDWIGRRFYWTDRGKSLIGRSDLNGKRSKIITKENISQPRGIAVHPMAKRLFWTDTGINPRIESSSLQGLGRLVIASSDLIWPSGITIDFLTDKLYWCDAKQSVIEMANLDGSKRRRLTQNDVGHPFAVAVFEDYVWFSDWAMPSVMRVNKRTGKDRVRLQGSMLKPSSLVVVHPLAKPGADPCLYQNGGCEHICKKRLGTAWCSCREGFMKASDGKTCLALDGHQLLAGGEVDLKNQVTPLDILSKTRVSEDNITESQHMLVAEIMVSDQDDCAPVGCSMYARCISEGEDATCQCLKGFAGDGKLCSDIDECEMGVPVCPPASSKCINTEGGYVCRCSEGYQGDGIHCLDIDECQLGEHSCGENASCTNTEGGYTCMCAGRLSEPGLICPDSTPPPHLREDDHHYSVRNSDSECPLSHDGYCLHDGVCMYIEALDKYACNCVVGYIGERCQYRDLKWWELRHAGHGQQQKVIVVAVCVVVLVMLLLLSLWGAHYYRTQKLLSKNPKNPYEESSRDVRSRRPADTEDGMSSCPQPWFVVIKEHQDLKNGGQPVAGEDGQAADGSMQPTSWRQEPQLCGMGTEQGCWIPVSSDKGSCPQVMERSFHMPSYGTQTLEGGVEKPHSLLSANPLWQQRALDPPHQMELTQ
modifications: Pro-epidermal growth factor
- effect on arm regeneration / regeneration frequency (in words): no effect

Reference: patent US20220016127A1, “COMPOSITIONS AND METHODS FOR INDUCING APPENDAGE AND LIMB REGENERATION” (priority 2020, published 2022)
